Data as given in patent US10117916B2, “Peptides and combination of peptides for use in immunotherapy against CLL and other cancers” (immatics biotechnologies GmbH, priority 2015, dated 2018).

Assays:
CD8+ T cells = experiment: In vitro immunogenicity: T-cell priming with aAPCs loaded with peptide/MHC and anti-CD28, pMHC multimer readout; assay type: cell-based, human; details: CD8+ T cells of healthy donors, three stimulation cycles; for Wells positive [%]: HLA-A*02 restricted peptides; for wells (in vitro immunogenicity, positive wells): HLA class I peptides
Protocol: In an aspect, the peptides are pre-screened for immunogenicity before being included in the warehouse. By way of example, and not limitation, the immunogenicity of the peptides included in the warehouse is determined by a method comprising in vitro T-cell priming through repeated stimulations of CD8+ T cells from healthy donors with artificial antigen presenting cells loaded with peptide/MHC complexes and anti-CD28 antibody.
CD8+ T cells were primed using artificial APCs coated with anti-CD28 mAb and HLA-A*02 in complex with SeqID No 1 peptide (FIG. 3C, left panel), SeqID No 5 peptide (FIG. 3D left panel), SeqID No 32 peptide (FIG. 3E, left panel) and SeqID No 220 peptide (FIG. 3F, left panel), respectively. After three cycles of stimulation, the detection of peptide-reactive cells was performed by 2D multimer staining with A*02/SeqID No 1 (FIG. 3C), A*02/SeqID No 5 (FIG. 3D), A*02/SeqID No 32 (FIG. 3E) or A*02/SeqID No 220 (FIG. 3F). Right panels (FIGS. 3C, 3D, 3E and 3F) show control staining of cells stimulated with irrelevant A*02/peptide complexes. Viable singlet cells were gated for CD8+ lymphocytes. Boolean gates helped excluding false-positive events detected with multimers specific for different peptides.
In order to obtain information regarding the immunogenicity of the TUMAPs of the present invention, the inventors performed investigations using an in vitro T-cell priming assay based on repeated stimulations of CD8+ T cells with artificial antigen presenting cells (aAPCs) loaded with peptide/MHC complexes and anti-CD28 antibody.
In order to perform in vitro stimulations by artificial antigen presenting cells loaded with peptide-MHC complex (pMHC) and anti-CD28 antibody, the inventors first isolated CD8+ T cells from fresh HLA-A*02 leukapheresis products via positive selection using CD8 microbeads (Miltenyi Biotec, Bergisch-Gladbach, Germany) of healthy donors obtained from the University clinics Mannheim, Germany, after informed consent.
PBMCs and isolated CD8+ lymphocytes were incubated in T-cell medium (TCM) until use consisting of RPMI-Glutamax (Invitrogen, Karlsruhe, Germany) supplemented with 10% heat inactivated human AB serum (PAN-Biotech, Aidenbach, Germany), 100 U/ml Penicillin/100 μg/ml Streptomycin (Cambrex, Cologne, Germany), 1 mM sodium pyruvate (CC Pro, Oberdorla, Germany), 20 μg/ml Gentamycin (Cambrex). 2.5 ng/ml IL-7 (PromoCell, Heidelberg, Germany) and 10 U/ml IL-2 (Novartis Pharma, Nirnberg, Germany) were also added to the TCM at this step.
Generation of pMHC/anti-CD28 coated beads, T-cell stimulations and readout was performed in a highly defined in vitro system using four different pMHC molecules per stimulation condition and 8 different pMHC molecules per readout condition.
The purified co-stimulatory mouse IgG2a anti human CD28 Ab 9.3 (Jung et al., 1987) was chemically biotinylated using Sulfo-N-hydroxysuccinimidobiotin as recommended by the manufacturer (Perbio, Bonn, Germany). Beads used were 5.6 μm diameter streptavidin coated polystyrene particles (Bangs Laboratories, Illinois, USA).
800.000 beads/200 μl were coated in 96-well plates in the presence of 4×12.5 ng different biotin-pMHC, washed and 600 ng biotin anti-CD28 were added subsequently in a volume of 200 μl. Stimulations were initiated in 96-well plates by co-incubating 1×10^6 CD8+ T cells with 2×10^5 washed coated beads in 200 μl TCM supplemented with 5 ng/ml IL-12 (PromoCell) for 3 days at 37° C. Half of the medium was then exchanged by fresh TCM supplemented with 80 U/ml IL-2 and incubating was continued for 4 days at 37° C. This stimulation cycle was performed for a total of three times. For the pMHC multimer readout using 8 different pMHC molecules per condition, a two-dimensional combinatorial coding approach was used as previously described (Andersen et al., 2012) with minor modifications encompassing coupling to 5 different fluorochromes.

HLA-A*02:01 = HLA-A*02:01 (Homo sapiens, UniProt P04439, D140Y/D185E/D98H/E176V/E277Q/G131W/G231S/I119V/I121R/I166T/I218V/L300P/L318F/N151K/N90K/P208A/P217A/Q86G/Q94H/R138H/R169H/T345S); experiment: MHC binding assay: UV-ligand exchange with β2m ELISA (peptide exchange yield); details: MHC class I binding score; binding to HLA-A*02:01 ranged by peptide exchange yield (UV-ligand exchange, β2m ELISA)
In short: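 Binding capacity is expressed as the yield of UV-mediated ligand exchange, reflecting how well each peptide stabilizes peptide-receptive MHC. Stabilized complexes are read out by anti-β2m HRP ELISA (450 nm) after streptavidin capture, with refolded MLA-001 monomer standards for quantitation.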

Substance	Peptide Exchange (HLA-A*02:01)	Wells positive [%] (CD8+ T cells)	wells (in vitro immunogenicity, positive wells) (CD8+ T cells)
1 (AIPPSFASIFL; listed as Homo sapiens) [compound 1]	″+++″ (≥50 = +++)	″+++″ (50%-69% = +++)	–
2 (ALHRPDVYL; listed as Homo sapiens) [compound 2]	″+++″ (≥50 = +++)	″+″ (<20% = +)	–
5 (ALIFKIASA; listed as Homo sapiens) [compound 5]	″+++″ (≥50 = +++)	″+++″ (50%-69% = +++)	–
17 (ALTKTNLQL; listed as Homo sapiens) [compound 17]	″+++″ (≥50 = +++)	″+″ (<20% = +)	–
26 (AVLLVLPLV; listed as Homo sapiens) [compound 26]	″+++″ (≥50 = +++)	″+″ (<20% = +)	–
336 (YMAVTTQEV; listed as Homo sapiens) [compound 336]	″++++″ (≥75% = ++++)	–	–
337 (YMYEKESEL; listed as Homo sapiens) [compound 337]	″++″ (≥20% = ++)	–	–
338 (FLDMTNWNL; listed as Homo sapiens) [compound 338]	″++++″ (≥75% = ++++)	–	–
339 (GLWGTVVNI; listed as Homo sapiens) [compound 339]	″+++″ (≥50 = +++)	–	–
340 (KLLEEICNL; listed as Homo sapiens) [compound 340]	″++++″ (≥75% = ++++)	–	–
341 (LLAELPASVHA; listed as Homo sapiens) [compound 341]	″+++″ (≥50 = +++)	–	–
342 (SLITPLQAV; listed as Homo sapiens) [compound 342]	″+++″ (≥50 = +++)	–	–
344 (VLAFENPQV; listed as Homo sapiens) [compound 344]	″+++″ (≥50 = +++)	–	–
345 (YLIEPDVELQRI; listed as Homo sapiens) [compound 345]	″+++″ (≥50 = +++)	–	–
346 (VLVQVSPSL; listed as Homo sapiens) [compound 346]	″+++″ (≥50 = +++)	–	–
347 (YLGPVSPSL; listed as Homo sapiens) [compound 347]	″+++″ (≥50 = +++)	–	–
348 (ALAKPPVVSV; listed as Homo sapiens) [compound 348]	″+++″ (≥50 = +++)	–	–
349 (ALATHILSL; listed as Homo sapiens) [compound 349]	″+++″ (≥50 = +++)	–	–

Substance	Peptide Exchange (HLA-A*02:01)	Wells positive [%] (CD8+ T cells)	wells (in vitro immunogenicity, positive wells) (CD8+ T cells)
350 (ALEDRVWEL; listed as Homo sapiens) [compound 350]	″+++″ (≥50 = +++)	–	–
351 (ALSEKLARL; listed as Homo sapiens) [compound 351]	″+++″ (≥50 = +++)	–	–
352 (ALVFELHYV; listed as Homo sapiens) [compound 352]	″+++″ (≥50 = +++)	–	–
353 (ATPMPTPSV; listed as Homo sapiens) [compound 353]	″++″ (≥20% = ++)	–	–
354 (FIMDDPAGNSYL; listed as Homo sapiens) [compound 354]	″+++″ (≥50 = +++)	–	–
355 (FIWPMLIHI; listed as Homo sapiens) [compound 355]	″+++″ (≥50 = +++)	–	–
356 (FLHDHQAEL; listed as Homo sapiens) [compound 356]	″++″ (≥20% = ++)	–	–
357 (FLIQEIKTL; listed as Homo sapiens) [compound 357]	″+++″ (≥50 = +++)	–	–
358 (FLTDYLNDL; listed as Homo sapiens) [compound 358]	″+++″ (≥50 = +++)	–	–
359 (FMQDPMEVFV; listed as Homo sapiens) [compound 359]	″+++″ (≥50 = +++)	–	–
360 (HLIDTNKIQL; listed as Homo sapiens) [compound 360]	″+++″ (≥50 = +++)	–	–
361 (ILQEFESKL; listed as Homo sapiens) [compound 361]	″+++″ (≥50 = +++)	–	–
362 (ILTELGGFEV; listed as Homo sapiens) [compound 362]	″+++″ (≥50 = +++)	–	–
363 (ITTEVVNELYV; listed as Homo sapiens) [compound 363]	″+++″ (≥50 = +++)	–	–
364 (KMDWIFHTI; listed as Homo sapiens) [compound 364]	″+++″ (≥50 = +++)	–	–
365 (LISPLLLPV; listed as Homo sapiens) [compound 365]	″+++″ (≥50 = +++)	–	–
427 (LLYDAVHIV; listed as Homo sapiens) [compound 427]	–	–	++ (20%-49% = ++)
521 (YLYGQTTTYL; listed as Homo sapiens) [compound 521]	–	–	++ (20%-49% = ++)

Second part, led by results:

Peptide Exchange (HLA-A*02:01)	Substance	Wells positive [%] (CD8+ T cells)	wells (in vitro immunogenicity, positive wells) (CD8+ T cells)
″+++″ (≥50 = +++)	367 (NLWSLVAKV; listed as Homo sapiens) [compound 367]	–	–
″+++″ (≥50 = +++)	369 (RLLDLENSLLGL; listed as Homo sapiens) [compound 369]	–	–
″+++″ (≥50 = +++)	370 (SIFASPESV; listed as Homo sapiens) [compound 370]	–	–
″+++″ (≥50 = +++)	371 (SLADDSVLERL; listed as Homo sapiens) [compound 371]	–	–
″+++″ (≥50 = +++)	372 (SLFGPLPGPGPALV; listed as Homo sapiens) [compound 372]	–	–
″++″ (≥20% = ++)	373 (TLLADQGEIRV; listed as Homo sapiens) [compound 373]	–	–
″+++″ (≥50 = +++)	374 (VLSVITEEL; listed as Homo sapiens) [compound 374]	–	–
″+++″ (≥50 = +++)	375 (VLWFKPVEL; listed as Homo sapiens) [compound 375]	–	–
″+++″ (≥50 = +++)	376 (VLYNQRVEEI; listed as Homo sapiens) [compound 376]	–	–
″+++″ (≥50 = +++)	377 (VVDGTCVAV; listed as Homo sapiens) [compound 377]	–	–
″+++″ (≥50 = +++)	378 (YILGKFFAL; listed as Homo sapiens) [compound 378]	–	–
″+++″ (≥50 = +++)	379 (YLAELVTPIL; listed as Homo sapiens) [compound 379]	–	–
″+++″ (≥50 = +++)	381 (YLLEENKIKL; listed as Homo sapiens) [compound 381]	–	–
″++++″ (≥75% = ++++)	382 (YLLPLLQRL; listed as Homo sapiens) [compound 382]	–	–
″++++″ (≥75% = ++++)	383 (YLLREWVNL; listed as Homo sapiens) [compound 383]	–	–
″++++″ (≥75% = ++++)	384 (YMIGSEVGNYL; listed as Homo sapiens) [compound 384]	–	–
″+++″ (≥50 = +++)	385 (YTIPLAIKL; listed as Homo sapiens) [compound 385]	–	–
